These results are taken from patent publication US11198871B2, “Riboswitch-mediated regulatory control of gene expression in thermophilic bacteria” (priority 2019, dated 2021).

For the series, the system named is sfGFP. It counts as cell-based, Geobacillus thermoglucosidasius. As to conditions: for fold change (reduction) of maximal normalized fluorescence: 0.25 mM guanosine versus none; for maximal normalized fluorescence: mid-exponential growth, 55° C. On the procedure: To evaluate the T.s. riboswitches' regulatory activities, a thermophilic fluorescence reporter assay was used that included the use of super-folder green fluorescence protein (sfGFP) which is active in the aerobic thermophile, Geobacillus thermoglucosidasius (G.t.), at a growth temperature of 55° C. Both purine riboswitches from T.s. were inserted downstream of the pRp1S strong promoter respectively in plasmid pG1AK-sf such that the riboswitch controlled the expression of sfGFP once it was introduced into G.t. (see FIG. 2a and Table 1).
To trigger the regulatory response from the riboswitches, guanosine was used as the ligand as cells can import the compound and convert it into guanine enzymatically. […] As an additional control, a point mutation was introduced in the Tsac 2584 aptamer domain at position 74 (C74U). Position 74 is responsible for its interaction with guanine.
In an embodiment, and as depicted in FIG. 8, the normalized fluorescence of the cell culture is defined as: […]
To compare the normalized fluorescence between cultures growing with different ligand concentrations, the normalized fluorescence for each culture was averaged between the mid-log points where the OD was between 0.4 and 0.6.
G. thermoglucosidasius strains transformed with different plasmids were grown aerobically overnight in 5 ml TGP media (supplemental) with 12.5 μg/mL kanamycin at 55° C. and shaken at 200 rpm. The freshly grown overnight culture was used to inoculate 5 mL of fresh TGP media with kanamycin and incubated in the same condition for about 5 hrs when the cultures reached OD600 of about 1.0. This secondary growth culture was used to inoculate 5 ml of Defined Glucose Media (DG) with 250-fold dilution and was sub-aliquoted into a 96-well plate with 200 microliters per well where different concentrations of the effector ligand was added. The plate was incubated in a Greiner-Bio xxx plate reader and the OD600 and the fluorescence intensity (details of excitation and emission) was tracked for 24 hrs. To quantify the normalized fluorescence, the value of the raw fluorescence was taken when the cells were in mid-exponential phase (OD600 0.4-0.6) and divided by the optical density to normalize the fluorescence.

Where two headings read alike, the source gives them in different places.

B1: Tsac 2588 (nucleic acid, listed as Thermoanaerobacterium saccharolyticum)
DNA: ATTGTGTCAGGACAAGTAAATAATAGCTCATATAATTCTGAGAATACGGCTCAGAAGTCTCTACCAGACAACCGTAAATTGTCTGACTATGAGTGAAAGTGTACCTGAGGGTTCCAGCCTTATTGTCCATGTGTAGAAAACAGTAAAGGCGTTCGGACCGAGCGGTACAGGCATTGTATTGCCACACCTGTGGGATAAAAGCCCGGGAGGATAGGTTTCACTCTATGTGTTGGAATCTATCATTCCGGGCTTGTTTATTTTTAAAATTCGTTTTTATTT
B1: the “fold change (reduction) of maximal normalized fluorescence” value is listed as around 2.5 fold. For the same molecule, under “0.25 mM guanosine”, the maximal normalized fluorescence is listed as 15±0.1 fluorescence units. Further, the “fluorescence in comparison to the control pG1AK parental plasmid” value (with guanosine) is recorded as “about 30%”. The maximal normalized fluorescence (without guanosine) is 38±1 fluorescence units.

B2: Tsac 2584 (nucleic acid, listed as Thermoanaerobacterium saccharolyticum)
DNA: B1 DNA
Turning to B2, the “fold change (reduction) of maximal normalized fluorescence” value is around 7 fold. The molecule also returned a maximal normalized fluorescence (0.25 mM guanosine) of 2.8±0.1 fluorescence units. Also, the “guanosine-dependent repression of sfGFP” value (guanosine added, result in words) is on record as “tight repression”. Moreover, where the note is “without guanosine”, the maximal normalized fluorescence is recorded as 20±2 fluorescence units.
